Reference: article PMC9259645, “Discovery of archaeal fusexins homologous to eukaryotic HAP2/GCS1 gamete fusion proteins” (Nature Communications, 2022)

Target: the molecule itself
Experiment: crystal structure; X-ray, 2.3 Å, space group C2, three-fold non-crystallographic symmetry; crystals grown at 20 °C from purified Fsx1E (in 20 mM Na-HEPES pH 7.8, 2.5 M NaCl) mixed with 23% PEG 4000, 0.1 M Tris-HCl pH 8.5, 0.2 M CaCl2

B1: Fusexin1 ectodomain (Fsx1E), residues D25-S535 with T369C, crystallised construct (domain or fragment, UniProt C0HM55 25-535, looked up)
chain: DSITYNSGTSEFFDGDVFAIEVTADQSTDEIDIYLGASELSEKTDGEVNQDLSIEFTHQDSKLKYSTSTSDELRDIVTLTTYYEDGFDTEQDAIDAIKSDCYDLNQNGNGSGRYSRYYSVTSPVYDYEIYCFQKNEKLATPAYIDNPDEIFTAKAELQAGDKTIQSATLSNGDAGDGTVTDLGDSKISWNGNLDLGASEPENSRVIALYSNDFENGWRIGNKQSYEDYKTFIGGGDAYDLLIDWQDGTYTASEVEDELVNTDANQAVEEASSSTTDLVNAKVKDSSLDTGSFVYDTPELLSYPSFTVYVDAGENGYIEVTKPTGDPDIISTSSTEIKEGDEGTVCATVENVGDGEGEFSGRLSSCGEGFSIVDDQNTKNVGAGESVTYSFDVAFSSVSSESKEISGSCTFEVNGVESSDSTSVSVTGIQQSECNPGDQRREKNENDRWEIYTCQDNGLTYEYDVTCAEDEKAVAQGDNQFSCEKQDDDSGGGDNTGSDSGLFSNLFGGSGS
notes: Fusexin1 (Fsx1), archaeal fusexin from a metagenomic ORF of a hypersaline environment (IMG genome 3300000868, scaffold JGI12330J12834_1000008, ORF 8); extracellular region, residues D25-S535; Expressed from pLJ6 (derived from pHLsec3) behind the chicken Crypα signal peptide, in frame with a 3' 8xHis tag; T369C was introduced to help heavy atom derivatisation; Homotrimer in the crystal; also …
- stoichiometry N: 3
